Columns and labels:
[1] = molecular target: CG55069 (Ten-M3), endogenous on human tumour, lymphoma and leukemia cell lines (human) (UniProt Q9P273); assay: flow cytometry on CCRF-CEM cells, negative control antibody
[2] = molecular target: CG55069 (Ten-M3), endogenous on human tumour, lymphoma and leukemia cell lines (human) (UniProt Q9P273); assay: flow cytometry on SU-DHL-4 cells, negative control antibody
[3] = molecular target: CG55069 (Ten-M3), endogenous on human tumour, lymphoma and leukemia cell lines (human) (UniProt Q9P273); assay: flow cytometry on DEL cells, negative control antibody
[4] = molecular target: CG55069 (Ten-M3), endogenous on human tumour, lymphoma and leukemia cell lines (human) (UniProt Q9P273); assay: flow cytometry on Karpas 299 cells, negative control antibody
[5] = molecular target: CG55069 (Ten-M3), endogenous on human tumour, lymphoma and leukemia cell lines (human) (UniProt Q9P273); assay: flow cytometry on MV4-11 cells, negative control antibody
[6] = molecular target: CG55069 (Ten-M3), endogenous on human tumour, lymphoma and leukemia cell lines (human) (UniProt Q9P273); assay: flow cytometry on SR cells, negative control antibody
[7] = molecular target: CG55069 (Ten-M3), endogenous on human tumour, lymphoma and leukemia cell lines (human) (UniProt Q9P273); assay: flow cytometry on SUP-M2 cells, negative control antibody
[8] = molecular target: CG55069 (Ten-M3), endogenous on human tumour, lymphoma and leukemia cell lines (human) (UniProt Q9P273); assay: flow cytometry on MOLT-4 cells, negative control antibody

Chain of UniProt Q9P273 (Q9P273 other isoform, or with tags, fused parts or gaps): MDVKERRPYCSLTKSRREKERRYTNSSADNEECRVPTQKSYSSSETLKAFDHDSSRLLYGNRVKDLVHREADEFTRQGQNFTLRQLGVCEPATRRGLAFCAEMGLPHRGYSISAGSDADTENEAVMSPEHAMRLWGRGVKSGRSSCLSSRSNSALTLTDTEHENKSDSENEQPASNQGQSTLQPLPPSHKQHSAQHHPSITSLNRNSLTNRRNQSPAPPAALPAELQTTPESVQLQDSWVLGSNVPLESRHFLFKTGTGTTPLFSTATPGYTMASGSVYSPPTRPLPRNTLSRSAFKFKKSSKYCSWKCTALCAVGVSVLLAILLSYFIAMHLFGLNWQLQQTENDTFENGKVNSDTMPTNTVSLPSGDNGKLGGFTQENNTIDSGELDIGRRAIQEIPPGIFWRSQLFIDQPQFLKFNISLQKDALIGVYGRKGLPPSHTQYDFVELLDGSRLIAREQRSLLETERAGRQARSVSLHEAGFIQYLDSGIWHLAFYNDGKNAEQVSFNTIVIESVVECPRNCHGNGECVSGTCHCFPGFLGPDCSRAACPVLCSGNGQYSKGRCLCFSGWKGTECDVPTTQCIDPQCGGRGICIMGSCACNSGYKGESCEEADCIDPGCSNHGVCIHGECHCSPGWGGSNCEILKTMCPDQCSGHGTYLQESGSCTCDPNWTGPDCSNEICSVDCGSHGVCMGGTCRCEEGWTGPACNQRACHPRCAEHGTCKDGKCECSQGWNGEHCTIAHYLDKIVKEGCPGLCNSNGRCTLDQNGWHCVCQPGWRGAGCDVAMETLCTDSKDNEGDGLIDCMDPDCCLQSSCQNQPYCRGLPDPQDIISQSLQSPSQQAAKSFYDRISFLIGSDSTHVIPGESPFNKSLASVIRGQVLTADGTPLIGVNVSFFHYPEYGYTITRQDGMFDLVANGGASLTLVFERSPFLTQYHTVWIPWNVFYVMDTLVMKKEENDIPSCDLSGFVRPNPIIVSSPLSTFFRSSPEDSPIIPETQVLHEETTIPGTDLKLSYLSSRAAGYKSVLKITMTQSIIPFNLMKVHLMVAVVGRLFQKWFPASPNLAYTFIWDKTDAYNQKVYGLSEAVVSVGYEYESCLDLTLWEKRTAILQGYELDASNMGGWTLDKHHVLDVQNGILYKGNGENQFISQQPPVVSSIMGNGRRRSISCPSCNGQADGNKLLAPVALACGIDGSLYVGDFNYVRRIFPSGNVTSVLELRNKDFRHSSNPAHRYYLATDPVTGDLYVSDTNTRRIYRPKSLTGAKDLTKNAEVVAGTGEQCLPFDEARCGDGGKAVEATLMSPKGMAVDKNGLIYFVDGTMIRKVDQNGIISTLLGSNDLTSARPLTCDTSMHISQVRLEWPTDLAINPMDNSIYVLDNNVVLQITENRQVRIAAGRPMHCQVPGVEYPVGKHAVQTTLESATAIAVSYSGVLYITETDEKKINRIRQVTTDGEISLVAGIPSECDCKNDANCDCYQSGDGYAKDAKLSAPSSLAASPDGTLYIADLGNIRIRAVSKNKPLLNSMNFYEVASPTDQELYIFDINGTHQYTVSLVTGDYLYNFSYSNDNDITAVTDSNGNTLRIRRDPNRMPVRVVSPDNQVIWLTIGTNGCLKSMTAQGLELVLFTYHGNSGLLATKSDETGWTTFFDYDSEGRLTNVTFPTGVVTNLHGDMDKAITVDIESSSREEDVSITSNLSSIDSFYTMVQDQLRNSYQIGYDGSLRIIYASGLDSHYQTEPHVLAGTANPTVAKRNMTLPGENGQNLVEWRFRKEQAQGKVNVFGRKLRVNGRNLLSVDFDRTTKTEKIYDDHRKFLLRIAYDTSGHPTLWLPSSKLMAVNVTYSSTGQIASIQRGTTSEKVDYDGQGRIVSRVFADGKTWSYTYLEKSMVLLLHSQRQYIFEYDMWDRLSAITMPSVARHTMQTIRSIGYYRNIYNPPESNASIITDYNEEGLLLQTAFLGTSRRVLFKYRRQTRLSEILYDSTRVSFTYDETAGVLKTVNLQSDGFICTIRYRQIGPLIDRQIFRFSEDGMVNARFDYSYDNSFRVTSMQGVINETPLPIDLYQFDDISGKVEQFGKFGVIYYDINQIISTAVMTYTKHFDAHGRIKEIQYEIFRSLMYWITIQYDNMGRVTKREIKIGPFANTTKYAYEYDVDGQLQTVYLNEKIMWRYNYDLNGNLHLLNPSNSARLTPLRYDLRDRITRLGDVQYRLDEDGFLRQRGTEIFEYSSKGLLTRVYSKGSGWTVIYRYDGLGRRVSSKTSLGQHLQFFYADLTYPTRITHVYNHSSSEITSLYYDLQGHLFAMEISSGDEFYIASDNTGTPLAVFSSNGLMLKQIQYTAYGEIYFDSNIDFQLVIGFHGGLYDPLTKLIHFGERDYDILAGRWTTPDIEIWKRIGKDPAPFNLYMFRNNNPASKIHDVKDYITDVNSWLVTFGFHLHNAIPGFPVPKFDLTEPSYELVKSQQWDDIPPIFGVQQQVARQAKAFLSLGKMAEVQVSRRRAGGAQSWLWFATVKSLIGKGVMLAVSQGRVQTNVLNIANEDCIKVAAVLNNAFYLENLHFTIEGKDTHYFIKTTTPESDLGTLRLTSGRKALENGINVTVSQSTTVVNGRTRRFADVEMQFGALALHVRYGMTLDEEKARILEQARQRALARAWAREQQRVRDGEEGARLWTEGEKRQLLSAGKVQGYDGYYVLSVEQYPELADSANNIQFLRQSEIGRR

- Geo Mean Ratio [1]: 4.22
- Geo Mean Ratio [2]: 2.38
- Geo Mean Ratio [3]: 7.41
- Geo Mean Ratio [4]: 5.08
- Geo Mean Ratio [5]: 90.7
- Geo Mean Ratio [6]: 4.29
- Geo Mean Ratio [7]: 6.13
- Geo Mean Ratio [8]: 4.13
Substance: Rabbit negative (control antibody)

— patent publication US20050244868A1
